± gives the standard deviation.
Experiment: collision cross section of modified peptide (TIMS, N2, iRT-aligned); higher = larger / more extended gas-phase ion
In short: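 Collision cross section values rest on the Mason-Schamp equation applied to calibrated, run-aligned mobility data from synthetic peptides. Mobility (1/K0) was calibrated with three reference ions and aligned per run to the median iRT peptide deviation, and 1–3 technical replicates of the most abundant feature per charge state were averaged. Data came from a timsTOF Pro/HT in dda-PASEF mode (nitrogen, ~2.4 mbar) after a 120-min nanoflow C18 gradient at 60 °C.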

[1] = charge state: 2, modification: HexNAc (ST)
[2] = charge state: 2, modification: Acetyl (K)
[3] = charge state: 3, modification: Acetyl (K)
[4] = charge state: 2, modification: Butyryl
[5] = charge state: 2, modification: Crotonyl
[6] = charge state: 2, modification: Dimethyl (K)
[7] = charge state: 3, modification: Dimethyl (K)
[8] = charge state: 2, modification: Glutarylation
[9] = charge state: 2, modification: GlyGly (K)
[10] = charge state: 3, modification: GlyGly (K)
[11] = charge state: 2, modification: Methyl (K)
[12] = charge state: 3, modification: Methyl (K)
[13] = charge state: 2, modification: Succinyl
[14] = charge state: 3, modification: Succinyl
[15] = charge state: 3, modification: Trimethyl (K)
[16] = charge state: 2, modification: hydroxyisobutyryl
[17] = charge state: 2, modification: Biotin
[18] = charge state: 2, modification: Formyl
[19] = charge state: 2, modification: Malonyl
[20] = charge state: 3, modification: Butyryl
[21] = charge state: 3, modification: Crotonyl
[22] = charge state: 3, modification: Formyl
[23] = charge state: 3, modification: Glutarylation
[24] = charge state: 3, modification: Malonyl
[25] = charge state: 2, modification: Propionyl
[26] = charge state: 2, modification: Trimethyl (K)
[27] = charge state: 3, modification: hydroxyisobutyryl

In the case of “ISPVEESEDVSNK [_ISPVEES(HexNAc (ST))EDVSNK_]”, the collision cross section [1] is reported as 415.06 ± 0.62 Å².
In the case of “ISSNFSSIIAEKLR [_ISSNFSSIIAEK(Acetyl (K))LR_]”, the collision cross section [2] is reported as 428.83 ± 3 Å² and the collision cross section [3] is reported as 506.75 Å².
Sequence “ISSNFSSIIAEKLR [_ISSNFSSIIAEK(Butyryl)LR_]” has a collision cross section [4] of 436.86 ± 0.55 Å².
In the case of “ISSNFSSIIAEKLR [_ISSNFSSIIAEK(Crotonyl)LR_]”, the collision cross section [5] is reported as 435.72 Å².
Work on “ISSNFSSIIAEKLR [_ISSNFSSIIAEK(Dimethyl (K))LR_]” yielded a collision cross section [6] of 442.58 ± 1.2 Å² and a collision cross section [7] of 495.15 ± 0.74 Å².
For “ISSNFSSIIAEKLR [_ISSNFSSIIAEK(Gluratylation)LR_]”, the collision cross section [8] was 430.8 ± 0.96 Å².
“ISSNFSSIIAEKLR [_ISSNFSSIIAEK(GlyGly (K))LR_]” showed a collision cross section [9] of 443.53 ± 6.7 Å² and a collision cross section [10] of 502.71 ± 1.1 Å².
“ISSNFSSIIAEKLR [_ISSNFSSIIAEK(Methyl (K))LR_]” gave a collision cross section [11] of 438.59 ± 1.7 Å² and a collision cross section [12] of 507.3 ± 3.6 Å².
With “ISSNFSSIIAEKLR [_ISSNFSSIIAEK(Succinyl)LR_]” the collision cross section [13] was 432.83 ± 0.84 Å² and the collision cross section [14] was 512.74 Å².
In the case of “ISSNFSSIIAEKLR [_ISSNFSSIIAEK(Trimethyl (K))LR_]”, the collision cross section [15] is reported as 499.26 ± 8.7 Å².
Sequence “ISSNFSSIIAEKLR [_ISSNFSSIIAEK(hydroxyisobutyryl)LR_]” has a collision cross section [16] of 431.4 ± 1.4 Å².
ITASLCDLKSR [_ITASLCDLK(Acetyl (K))SR_] gave a collision cross section [2] of 383.24 ± 1.3 Å².
With ITASLCDLKSR [_ITASLCDLK(Biotin)SR_] the collision cross section [17] was 401.02 Å².
Sequence ITASLCDLKSR [_ITASLCDLK(Butyryl)SR_] has a collision cross section [4] of 390.25 Å².
With ITASLCDLKSR [_ITASLCDLK(Formyl)SR_] the collision cross section [18] was 378.38 Å².
“ITASLCDLKSR [_ITASLCDLK(Gluratylation)SR_]” gave a collision cross section [8] of 391.61 ± 1.4 Å².
Work on ITASLCDLKSR [_ITASLCDLK(GlyGly (K))SR_] yielded a collision cross section [9] of 398.64 ± 0.87 Å² and a collision cross section [10] of 457.36 ± 1.1 Å².
ITASLCDLKSR [_ITASLCDLK(Malonyl)SR_] gave a collision cross section [19] of 382.56 Å².
Sequence ITASLCDLKSR [_ITASLCDLK(Methyl (K))SR_] has a collision cross section [11] of 398.61 Å² and a collision cross section [12] of 456.95 ± 2.7 Å².
Sequence ITASLCDLKSR [_ITASLCDLK(Succinyl)SR_] has a collision cross section [13] of 384.23 ± 0.76 Å².
For “ITASLCDLKSR [_ITASLCDLK(hydroxyisobutyryl)SR_]”, the collision cross section [16] was 395.08 ± 0.81 Å².
“ITESVAETAQTIK [_ITESVAET(HexNAc (ST))AQTIK_]” showed a collision cross section [1] of 422.03 ± 0.75 Å².
“ITESVAETAQTIKK [_ITESVAET(HexNAc (ST))AQTIKK_]” showed a collision cross section [1] of 456.71 ± 0.56 Å² and a collision cross section (charge state: 3, modification: HexNAc (ST)) of 499.78 ± 0.18 Å².
“ITESVAETAQTIKK [_ITESVAETAQTIK(Acetyl (K))K_]” showed a collision cross section [2] of 418.11 ± 1.3 Å² and a collision cross section [3] of 510.01 ± 1.7 Å².
In the case of “ITESVAETAQTIKK [_ITESVAETAQTIK(Biotin)K_]”, the collision cross section [17] is reported as 443.04 ± 1.4 Å².
In the case of “ITESVAETAQTIKK [_ITESVAETAQTIK(Butyryl)K_]”, the collision cross section [4] is reported as 425.5 ± 0.24 Å² and the collision cross section [20] is reported as 518.39 ± 2.7 Å².
With “ITESVAETAQTIKK [_ITESVAETAQTIK(Crotonyl)K_]” the collision cross section [5] was 424.18 ± 0.81 Å² and the collision cross section [21] was 514.18 ± 1.1 Å².
For “ITESVAETAQTIKK [_ITESVAETAQTIK(Dimethyl (K))K_]”, the collision cross section [6] was 449.13 ± 1.2 Å² and the collision cross section [7] was 499.12 ± 1.6 Å².
In the case of “ITESVAETAQTIKK [_ITESVAETAQTIK(Formyl)K_]”, the collision cross section [18] is reported as 415.52 ± 0.56 Å² and the collision cross section [22] is reported as 507.5 ± 1.5 Å².
For “ITESVAETAQTIKK [_ITESVAETAQTIK(Gluratylation)K_]”, the collision cross section [8] was 429.83 ± 0.97 Å² and the collision cross section [23] was 514.64 ± 1.7 Å².
With “ITESVAETAQTIKK [_ITESVAETAQTIK(GlyGly (K))K_]” the collision cross section [9] was 453.63 ± 0.95 Å² and the collision cross section [10] was 514.8 ± 1.1 Å².
In the case of “ITESVAETAQTIKK [_ITESVAETAQTIK(Malonyl)K_]”, the collision cross section [19] is reported as 420.49 ± 0.57 Å² and the collision cross section [24] is reported as 509.94 ± 1.1 Å².
Work on “ITESVAETAQTIKK [_ITESVAETAQTIK(Methyl (K))K_]” yielded a collision cross section [11] of 444.7 ± 2.5 Å² and a collision cross section [12] of 507.98 ± 2.8 Å².
“ITESVAETAQTIKK [_ITESVAETAQTIK(Propionyl)K_]” showed a collision cross section [25] of 421.06 ± 1.1 Å² and a collision cross section (charge state: 3, modification: Propionyl) of 515.07 Å².
“ITESVAETAQTIKK [_ITESVAETAQTIK(Succinyl)K_]” gave a collision cross section [13] of 424.69 ± 1.1 Å² and a collision cross section [14] of 512.63 ± 2.6 Å².
In the case of “ITESVAETAQTIKK [_ITESVAETAQTIK(Trimethyl (K))K_]”, the collision cross section [26] is reported as 451.09 ± 1 Å² and the collision cross section [15] is reported as 496.11 ± 2.8 Å².
With “ITESVAETAQTIKK [_ITESVAETAQTIK(hydroxyisobutyryl)K_]” the collision cross section [16] was 425.76 ± 3.1 Å² and the collision cross section [27] was 520.92 ± 2 Å².
In the case of ITGKNQVTATK [_ITGK(Acetyl (K))NQVTATK_], the collision cross section [2] is reported as 365.02 ± 0.94 Å².
Sequence ITGKNQVTATK [_ITGK(Biotin)NQVTATK_] has a collision cross section [17] of 389.13 ± 1.7 Å².
Work on ITGKNQVTATK [_ITGK(Butyryl)NQVTATK_] yielded a collision cross section [4] of 370.52 ± 0.71 Å².
Sequence ITGKNQVTATK [_ITGK(Crotonyl)NQVTATK_] has a collision cross section [5] of 369.54 ± 0.26 Å².
In the case of “ITGKNQVTATK [_ITGK(Dimethyl (K))NQVTATK_]”, the collision cross section [6] is reported as 369.07 ± 1.1 Å² and the collision cross section [7] is reported as 427.9 Å².
For ITGKNQVTATK [_ITGK(Formyl)NQVTATK_], the collision cross section [18] was 360.79 ± 0.79 Å².
“ITGKNQVTATK [_ITGK(Gluratylation)NQVTATK_]” gave a collision cross section [8] of 369.78 ± 0.66 Å².
ITGKNQVTATK [_ITGK(GlyGly (K))NQVTATK_] showed a collision cross section [9] of 373.22 ± 0.38 Å² and a collision cross section [10] of 442.8 ± 1.1 Å².
Sequence ITGKNQVTATK [_ITGK(Malonyl)NQVTATK_] has a collision cross section [19] of 362.15 ± 0.018 Å².
Sequence ITGKNQVTATK [_ITGK(Methyl (K))NQVTATK_] has a collision cross section [11] of 372.71 ± 1.1 Å² and a collision cross section [12] of 447.83 ± 5.1 Å².
For ITGKNQVTATK [_ITGK(Propionyl)NQVTATK_], the collision cross section [25] was 368.3 ± 0.65 Å².
Sequence ITGKNQVTATK [_ITGK(Succinyl)NQVTATK_] has a collision cross section [13] of 364.93 ± 0.74 Å² and a collision cross section [14] of 446.25 Å².
Sequence “ITGKNQVTATK [_ITGK(Trimethyl (K))NQVTATK_]” has a collision cross section [26] of 375.05 ± 1.7 Å² and a collision cross section [15] of 426.22 Å².
“ITGKNQVTATK [_ITGK(hydroxyisobutyryl)NQVTATK_]” gave a collision cross section [16] of 372.92 ± 1.4 Å².
“ITLSKHQNVQLPR [_ITLSK(Acetyl (K))HQNVQLPR_]” showed a collision cross section [2] of 436.23 ± 3.2 Å² and a collision cross section [3] of 526.67 ± 2.1 Å².
In the case of ITLSKHQNVQLPR [_ITLSK(Biotin)HQNVQLPR_], the collision cross section (charge state: 3, modification: Biotin) is reported as 502.67 Å².
Work on “ITLSKHQNVQLPR [_ITLSK(Butyryl)HQNVQLPR_]” yielded a collision cross section [4] of 443.37 ± 0.53 Å² and a collision cross section [20] of 503.02 ± 28 Å².
For “ITLSKHQNVQLPR [_ITLSK(Crotonyl)HQNVQLPR_]”, the collision cross section [5] was 443.04 ± 1.2 Å² and the collision cross section [21] was 519.02 ± 26 Å².
“ITLSKHQNVQLPR [_ITLSK(Dimethyl (K))HQNVQLPR_]” showed a collision cross section [7] of 489.75 ± 1.2 Å².
ITLSKHQNVQLPR [_ITLSK(Formyl)HQNVQLPR_] showed a collision cross section [18] of 435.58 ± 0.72 Å² and a collision cross section [22] of 504.15 ± 24 Å².
“ITLSKHQNVQLPR [_ITLSK(Gluratylation)HQNVQLPR_]” gave a collision cross section [8] of 422.98 ± 0.48 Å² and a collision cross section [23] of 526.02 ± 27 Å².
“ITLSKHQNVQLPR [_ITLSK(GlyGly (K))HQNVQLPR_]” gave a collision cross section [9] of 441.27 Å² and a collision cross section [10] of 493.46 ± 2 Å².
“ITLSKHQNVQLPR [_ITLSK(Malonyl)HQNVQLPR_]” gave a collision cross section [24] of 478.94 ± 1.8 Å².
With “ITLSKHQNVQLPR [_ITLSK(Methyl (K))HQNVQLPR_]” the collision cross section [11] was 432.38 Å² and the collision cross section [12] was 510.25 ± 21 Å².
Work on “ITLSKHQNVQLPR [_ITLSK(Succinyl)HQNVQLPR_]” yielded a collision cross section [13] of 418.56 ± 0.53 Å² and a collision cross section [14] of 485.89 ± 2 Å².
For “ITLSKHQNVQLPR [_ITLSK(Trimethyl (K))HQNVQLPR_]”, the collision cross section [15] was 492.22 ± 3.3 Å².
“ITLSKHQNVQLPR [_ITLSK(hydroxyisobutyryl)HQNVQLPR_]” showed a collision cross section [16] of 443.83 ± 0.038 Å² and a collision cross section [27] of 520.86 ± 27 Å².
With “IVEKYGYTHLSAGELLR [_IVEK(Acetyl (K))YGYTHLSAGELLR_]” the collision cross section [3] was 562.4 ± 1.8 Å².
“IVEKYGYTHLSAGELLR [_IVEK(Dimethyl (K))YGYTHLSAGELLR_]” gave a collision cross section [7] of 550.8 Å².
In the case of “IVEKYGYTHLSAGELLR [_IVEK(Gluratylation)YGYTHLSAGELLR_]”, the collision cross section [23] is reported as 567.6 ± 0.21 Å².
Work on “IVEKYGYTHLSAGELLR [_IVEK(GlyGly (K))YGYTHLSAGELLR_]” yielded a collision cross section [10] of 548.84 ± 0.37 Å².
In the case of “IVEKYGYTHLSAGELLR [_IVEK(Methyl (K))YGYTHLSAGELLR_]”, the collision cross section [12] is reported as 548.39 ± 0.79 Å².

From the supplement of paper PMC10598134
